# Experimental data published in patent US20150344570A1 (published 2015).
# T1: FcγRIIa R (FcγRIIa, allotype with Arg at position 131), extracellular domain with C-terminal His tag (human, UniProt P12318 34-217)
# T1 construct: extracellular domain; also called FcγRIIa R type; 2aR
# T1 sequence (looked up): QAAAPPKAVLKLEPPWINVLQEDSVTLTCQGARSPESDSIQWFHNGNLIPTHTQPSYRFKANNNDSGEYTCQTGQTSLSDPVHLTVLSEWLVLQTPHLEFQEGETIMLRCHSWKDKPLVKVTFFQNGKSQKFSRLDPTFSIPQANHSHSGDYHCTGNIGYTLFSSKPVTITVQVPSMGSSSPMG
# T2: FcγRIIb extracellular domain with C-terminal His tag (human, UniProt P31994 43-217)
# T2 construct: extracellular domain; also called FcgRIIb; 2b
# T2 sequence (looked up): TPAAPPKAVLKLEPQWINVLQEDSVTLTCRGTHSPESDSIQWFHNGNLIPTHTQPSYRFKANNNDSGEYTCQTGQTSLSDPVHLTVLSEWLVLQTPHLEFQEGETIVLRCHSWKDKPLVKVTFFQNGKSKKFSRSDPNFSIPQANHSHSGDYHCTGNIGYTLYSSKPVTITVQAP
# Biological target: T1, FcγRIIa R (FcγRIIa, allotype with Arg …)
# Test: SPR (Biacore), antibody captured on antigen peptide chip, FcγR as analyte; relative binding
# Description: Analysis of interaction between objective antibody and the FcγR was carried out using Biacore T100 (GE Healthcare). HBS-EP+ (GE Healthcare) was used as the running buffer, and the measurement temperature was set to 25° C. Chips produced by immobilizing the antigen peptide by the amine coupling method to a Series S Sencor Chip CM5 (GE Healthcare), or alternatively, chips produced by allowing preliminarily biotinylated antigen peptides to interact with and immobilize onto a Series S Sensor Chip SA (certified) (GE Healthcare) were used. Antibodies of interest were captured onto an antigen peptide-immobilized chip, and allowed to interact to each FcγR diluted with running buffer. To regenerate and repeatedly use the chip, the antibodies captured on the chip were washed off by reacting 10 mM glycine-HCl, pH 1.5.
row,Ho/Con_2aR,Binder
1,85.3 % of GpH7-B3/GpL16-k0 (=100),"GpH7-B3 variant S239_07I/GpL16-k0 (antibody, human IgG1, kappa, also called Ho Ab) heavy: not shown light: DIVMTQSPLSLPVTPGEPASISCQASESLVHSNRNTYLHWYLQKPGQSPQLLIYKVSNRFSGVPDRFSGSGSGTDFTLKISRVEAEDVGVYYCSQNTHVPPTFGQGTKVEIERTVAAPSVFIFPPSDEQLKSGTASVVCLLNNFYPREAKVQWKVDNALQSGNSQESVTEQDSKDSTYSLSSTLTLSKADYEKHKVYACEVTHQGLSSPVTKSFNRGEC"
2,99.2 % of GpH7-B3/GpL16-k0 (=100),"GpH7-B3 variant Q295_10E/GpL16-k0 (antibody, human IgG1, kappa, also called Ho Ab) heavy: not shown light: DIVMTQSPLSLPVTPGEPASISCQASESLVHSNRNTYLHWYLQKPGQSPQLLIYKVSNRFSGVPDRFSGSGSGTDFTLKISRVEAEDVGVYYCSQNTHVPPTFGQGTKVEIERTVAAPSVFIFPPSDEQLKSGTASVVCLLNNFYPREAKVQWKVDNALQSGNSQESVTEQDSKDSTYSLSSTLTLSKADYEKHKVYACEVTHQGLSSPVTKSFNRGEC"
3,106 % of GpH7-B3/GpL16-k0 (=100),"GpH7-B3 variant S239_08L/GpL16-k0 (antibody, human IgG1, kappa, also called Ho Ab) heavy: not shown light: DIVMTQSPLSLPVTPGEPASISCQASESLVHSNRNTYLHWYLQKPGQSPQLLIYKVSNRFSGVPDRFSGSGSGTDFTLKISRVEAEDVGVYYCSQNTHVPPTFGQGTKVEIERTVAAPSVFIFPPSDEQLKSGTASVVCLLNNFYPREAKVQWKVDNALQSGNSQESVTEQDSKDSTYSLSSTLTLSKADYEKHKVYACEVTHQGLSSPVTKSFNRGEC"
4,93.9 % of GpH7-B3/GpL16-k0 (=100),"GpH7-B3 variant Q295_06M/GpL16-k0 (antibody, human IgG1, kappa, also called Ho Ab) heavy: not shown light: DIVMTQSPLSLPVTPGEPASISCQASESLVHSNRNTYLHWYLQKPGQSPQLLIYKVSNRFSGVPDRFSGSGSGTDFTLKISRVEAEDVGVYYCSQNTHVPPTFGQGTKVEIERTVAAPSVFIFPPSDEQLKSGTASVVCLLNNFYPREAKVQWKVDNALQSGNSQESVTEQDSKDSTYSLSSTLTLSKADYEKHKVYACEVTHQGLSSPVTKSFNRGEC"
5,92.3 % of GpH7-B3/GpL16-k0 (=100),"GpH7-B3 variant S239_14T/GpL16-k0 (antibody, human IgG1, kappa, also called Ho Ab) heavy: not shown light: DIVMTQSPLSLPVTPGEPASISCQASESLVHSNRNTYLHWYLQKPGQSPQLLIYKVSNRFSGVPDRFSGSGSGTDFTLKISRVEAEDVGVYYCSQNTHVPPTFGQGTKVEIERTVAAPSVFIFPPSDEQLKSGTASVVCLLNNFYPREAKVQWKVDNALQSGNSQESVTEQDSKDSTYSLSSTLTLSKADYEKHKVYACEVTHQGLSSPVTKSFNRGEC"
6,122 % of GpH7-B3/GpL16-k0 (=100),"GpH7-B3 variant S239_10E/GpL16-k0 (antibody, human IgG1, kappa, also called Ho Ab) heavy: not shown light: DIVMTQSPLSLPVTPGEPASISCQASESLVHSNRNTYLHWYLQKPGQSPQLLIYKVSNRFSGVPDRFSGSGSGTDFTLKISRVEAEDVGVYYCSQNTHVPPTFGQGTKVEIERTVAAPSVFIFPPSDEQLKSGTASVVCLLNNFYPREAKVQWKVDNALQSGNSQESVTEQDSKDSTYSLSSTLTLSKADYEKHKVYACEVTHQGLSSPVTKSFNRGEC"
7,102 % of GpH7-B3/GpL16-k0 (=100),"GpH7-B3 variant P331_20W/GpL16-k0 (antibody, human IgG1, kappa, also called Ho Ab) heavy: not shown light: DIVMTQSPLSLPVTPGEPASISCQASESLVHSNRNTYLHWYLQKPGQSPQLLIYKVSNRFSGVPDRFSGSGSGTDFTLKISRVEAEDVGVYYCSQNTHVPPTFGQGTKVEIERTVAAPSVFIFPPSDEQLKSGTASVVCLLNNFYPREAKVQWKVDNALQSGNSQESVTEQDSKDSTYSLSSTLTLSKADYEKHKVYACEVTHQGLSSPVTKSFNRGEC"
8,82.9 % of GpH7-B3/GpL16-k0 (=100),"GpH7-B3 variant S239_06M/GpL16-k0 (antibody, human IgG1, kappa, also called Ho Ab) heavy: not shown light: DIVMTQSPLSLPVTPGEPASISCQASESLVHSNRNTYLHWYLQKPGQSPQLLIYKVSNRFSGVPDRFSGSGSGTDFTLKISRVEAEDVGVYYCSQNTHVPPTFGQGTKVEIERTVAAPSVFIFPPSDEQLKSGTASVVCLLNNFYPREAKVQWKVDNALQSGNSQESVTEQDSKDSTYSLSSTLTLSKADYEKHKVYACEVTHQGLSSPVTKSFNRGEC"

# More lines, now with the values behind:
row,Binder,Ho/Con_2aR
1,"GpH7-B3 variant S337_02A/GpL16-k0 (antibody, human IgG1, kappa, also called Ho Ab) heavy: not shown light: DIVMTQSPLSLPVTPGEPASISCQASESLVHSNRNTYLHWYLQKPGQSPQLLIYKVSNRFSGVPDRFSGSGSGTDFTLKISRVEAEDVGVYYCSQNTHVPPTFGQGTKVEIERTVAAPSVFIFPPSDEQLKSGTASVVCLLNNFYPREAKVQWKVDNALQSGNSQESVTEQDSKDSTYSLSSTLTLSKADYEKHKVYACEVTHQGLSSPVTKSFNRGEC",102 % of GpH7-B3/GpL16-k0 (=100)
2,"GpH7-B3 variant P331_08L/GpL16-k0 (antibody, human IgG1, kappa, also called Ho Ab) heavy: not shown light: DIVMTQSPLSLPVTPGEPASISCQASESLVHSNRNTYLHWYLQKPGQSPQLLIYKVSNRFSGVPDRFSGSGSGTDFTLKISRVEAEDVGVYYCSQNTHVPPTFGQGTKVEIERTVAAPSVFIFPPSDEQLKSGTASVVCLLNNFYPREAKVQWKVDNALQSGNSQESVTEQDSKDSTYSLSSTLTLSKADYEKHKVYACEVTHQGLSSPVTKSFNRGEC",74.4 % of GpH7-B3/GpL16-k0 (=100)
3,"GpH7-B3 variant P331_06M/GpL16-k0 (antibody, human IgG1, kappa, also called Ho Ab) heavy: not shown light: DIVMTQSPLSLPVTPGEPASISCQASESLVHSNRNTYLHWYLQKPGQSPQLLIYKVSNRFSGVPDRFSGSGSGTDFTLKISRVEAEDVGVYYCSQNTHVPPTFGQGTKVEIERTVAAPSVFIFPPSDEQLKSGTASVVCLLNNFYPREAKVQWKVDNALQSGNSQESVTEQDSKDSTYSLSSTLTLSKADYEKHKVYACEVTHQGLSSPVTKSFNRGEC",79.8 % of GpH7-B3/GpL16-k0 (=100)
4,"GpH7-B3 variant P331_09D/GpL16-k0 (antibody, human IgG1, kappa, also called Ho Ab) heavy: not shown light: DIVMTQSPLSLPVTPGEPASISCQASESLVHSNRNTYLHWYLQKPGQSPQLLIYKVSNRFSGVPDRFSGSGSGTDFTLKISRVEAEDVGVYYCSQNTHVPPTFGQGTKVEIERTVAAPSVFIFPPSDEQLKSGTASVVCLLNNFYPREAKVQWKVDNALQSGNSQESVTEQDSKDSTYSLSSTLTLSKADYEKHKVYACEVTHQGLSSPVTKSFNRGEC",88.8 % of GpH7-B3/GpL16-k0 (=100)
5,"GpH7-B3 variant P331_15Y/GpL16-k0 (antibody, human IgG1, kappa, also called Ho Ab) heavy: not shown light: DIVMTQSPLSLPVTPGEPASISCQASESLVHSNRNTYLHWYLQKPGQSPQLLIYKVSNRFSGVPDRFSGSGSGTDFTLKISRVEAEDVGVYYCSQNTHVPPTFGQGTKVEIERTVAAPSVFIFPPSDEQLKSGTASVVCLLNNFYPREAKVQWKVDNALQSGNSQESVTEQDSKDSTYSLSSTLTLSKADYEKHKVYACEVTHQGLSSPVTKSFNRGEC",105 % of GpH7-B3/GpL16-k0 (=100)
6,"GpH7-B3 variant P331_14T/GpL16-k0 (antibody, human IgG1, kappa, also called Ho Ab) heavy: not shown light: DIVMTQSPLSLPVTPGEPASISCQASESLVHSNRNTYLHWYLQKPGQSPQLLIYKVSNRFSGVPDRFSGSGSGTDFTLKISRVEAEDVGVYYCSQNTHVPPTFGQGTKVEIERTVAAPSVFIFPPSDEQLKSGTASVVCLLNNFYPREAKVQWKVDNALQSGNSQESVTEQDSKDSTYSLSSTLTLSKADYEKHKVYACEVTHQGLSSPVTKSFNRGEC",80.8 % of GpH7-B3/GpL16-k0 (=100)
7,"GpH7-B3 variant P331_10E/GpL16-k0 (antibody, human IgG1, kappa, also called Ho Ab) heavy: not shown light: DIVMTQSPLSLPVTPGEPASISCQASESLVHSNRNTYLHWYLQKPGQSPQLLIYKVSNRFSGVPDRFSGSGSGTDFTLKISRVEAEDVGVYYCSQNTHVPPTFGQGTKVEIERTVAAPSVFIFPPSDEQLKSGTASVVCLLNNFYPREAKVQWKVDNALQSGNSQESVTEQDSKDSTYSLSSTLTLSKADYEKHKVYACEVTHQGLSSPVTKSFNRGEC",94.6 % of GpH7-B3/GpL16-k0 (=100)
8,"GpH7-B3 variant P331_07I/GpL16-k0 (antibody, human IgG1, kappa, also called Ho Ab) heavy: not shown light: DIVMTQSPLSLPVTPGEPASISCQASESLVHSNRNTYLHWYLQKPGQSPQLLIYKVSNRFSGVPDRFSGSGSGTDFTLKISRVEAEDVGVYYCSQNTHVPPTFGQGTKVEIERTVAAPSVFIFPPSDEQLKSGTASVVCLLNNFYPREAKVQWKVDNALQSGNSQESVTEQDSKDSTYSLSSTLTLSKADYEKHKVYACEVTHQGLSSPVTKSFNRGEC",67 % of GpH7-B3/GpL16-k0 (=100)
9,"GpH7-B3 variant P331_16H/GpL16-k0 (antibody, human IgG1, kappa, also called Ho Ab) heavy: not shown light: DIVMTQSPLSLPVTPGEPASISCQASESLVHSNRNTYLHWYLQKPGQSPQLLIYKVSNRFSGVPDRFSGSGSGTDFTLKISRVEAEDVGVYYCSQNTHVPPTFGQGTKVEIERTVAAPSVFIFPPSDEQLKSGTASVVCLLNNFYPREAKVQWKVDNALQSGNSQESVTEQDSKDSTYSLSSTLTLSKADYEKHKVYACEVTHQGLSSPVTKSFNRGEC",100 % of GpH7-B3/GpL16-k0 (=100)
10,"GpH7-B3 variant P331_18N/GpL16-k0 (antibody, human IgG1, kappa, also called Ho Ab) heavy: not shown light: DIVMTQSPLSLPVTPGEPASISCQASESLVHSNRNTYLHWYLQKPGQSPQLLIYKVSNRFSGVPDRFSGSGSGTDFTLKISRVEAEDVGVYYCSQNTHVPPTFGQGTKVEIERTVAAPSVFIFPPSDEQLKSGTASVVCLLNNFYPREAKVQWKVDNALQSGNSQESVTEQDSKDSTYSLSSTLTLSKADYEKHKVYACEVTHQGLSSPVTKSFNRGEC",76.9 % of GpH7-B3/GpL16-k0 (=100)
11,"GpH7-B3 variant P331_13S/GpL16-k0 (antibody, human IgG1, kappa, also called Ho Ab) heavy: not shown light: DIVMTQSPLSLPVTPGEPASISCQASESLVHSNRNTYLHWYLQKPGQSPQLLIYKVSNRFSGVPDRFSGSGSGTDFTLKISRVEAEDVGVYYCSQNTHVPPTFGQGTKVEIERTVAAPSVFIFPPSDEQLKSGTASVVCLLNNFYPREAKVQWKVDNALQSGNSQESVTEQDSKDSTYSLSSTLTLSKADYEKHKVYACEVTHQGLSSPVTKSFNRGEC",87.8 % of GpH7-B3/GpL16-k0 (=100)

# Biological target: T2, FcγRIIb extracellular domain with …
# Test: SPR (Biacore), relative binding
row,He/Con_2b,Binder
1,103 % of HeCon Ab GpH7-A5/GpH7-B3/GpL16-k0,"GpH7-A5/GpH7-B3 variant Y296_20W/GpL16-k0 (antibody, human IgG1, kappa, also called He Ab Y296_20W) heavy 1: not shown heavy 2: not shown light: DIVMTQSPLSLPVTPGEPASISCQASESLVHSNRNTYLHWYLQKPGQSPQLLIYKVSNRFSGVPDRFSGSGSGTDFTLKISRVEAEDVGVYYCSQNTHVPPTFGQGTKVEIERTVAAPSVFIFPPSDEQLKSGTASVVCLLNNFYPREAKVQWKVDNALQSGNSQESVTEQDSKDSTYSLSSTLTLSKADYEKHKVYACEVTHQGLSSPVTKSFNRGEC"
